Data published in patent US20200071424A1.

Tests used:
[1] = target: human-mouse chimeric EL (construct not specified); test: cell-based or functional assay
[2] = target: human-mouse chimeric EL (construct not specified); test: Biacore; EL captured by anti-C2-tag Ab; bivalent fit
[3] = target: cynomolgus monkey EL (cynomolgus monkey); test: cell-based or functional assay
[4] = target: cynomolgus monkey EL (cynomolgus monkey); test: Biacore; EL captured by anti-C2-tag Ab; bivalent fit

B1: h12B10-S1 (antibody, V domains shown)
VH: EVQLVESGGGLVKPGGSLRLSCAASGFSLSTSGMGVGWVRQAPGKGLEWLAHIWWNDEKYYNPSLKSRFTISRDDSKNTLYLQMNSLKTEDTAVYYCARDHLAYYFDVWGQGTLVTVSS
VL: DIQMTQSPSSLSASVGDRVTITCKASQDINKYIAWYQQKPGKAPKLLMAYPFTLQPGVPSRFSGSGSGTDFTLTISSLQPEDFATYYCLQYDNLLWTFGQGTKVEIK
Work on B1 yielded a Neutralizing activity IC50 [1] of 6 nM, a Kd [2] of 1.9 nM and a koff [2] of 0.00035 s⁻¹. The kon [2] was 190000 M⁻¹ s⁻¹.

B2: h12B10-S3 (antibody, V domains shown)
VH: EVQLVESGGGLVKPGGSLRLSCAASGFSLSTSGMGVGWVRQAPGKGLEWLAHIWWNDEKYYNPSLKSRFTISRDDSKNTLYLQMNSLKTEDTAVYYCARDHLAFFFDLWGQGTLVTVSS
VL: DIQMTQSPSSLSASVGDRVTITCKASQDINKYIAWYQQKPGKAPKLLMAYPFTLQPGVPSRFSGSGSGTDFTLTISSLQPEDFATYYCLQYDNLLWTFGQGTKVEIK
Work on B2 yielded a Neutralizing activity IC50 [1] of 4.9 nM, a Kd [2] of 0.11 nM and a koff [2] of 1.7e-05 s⁻¹. For the same binder, the kon [2] was 150000 M⁻¹ s⁻¹.

B3: h12B10-S4 (antibody, V domains shown)
VH: EVQLVESGGGLVKPGGSLRLSCAASGFSLSSSGMGVGWVRQAPGKGLEWLAHIWWNDEKYYNPSLKSRFTISRDDSKNTLYLQMNSLKTEDTAVYYCARDHLVFFFDLWGQGTLVTVSS
VL: DIQMTQSPSSLSASVGDRVTITCKASQDINKYIAWYQQKPGKAPKLLMAYPFTLQPGVPSRFSGSGSGTDFTLTISSLQPEDFATYYCLQYDNLLWTFGQGTKVEIK
B3 showed a Neutralizing activity IC50 [1] of 6.2 nM.

B4: h12B10-S2 (antibody, V domains shown)
VH: EVQLVESGGGLVKPGGSLRLSCAASGFSLSTSGMGVGWVRQAPGKGLEWLAHIWWNDEKYYNPSLKSRFTISRDDSKNTLYLQMNSLKTEDTAVYYCARDHLAFYFDLWGQGTLVTVSS
VL: DIQMTQSPSSLSASVGDRVTITCKASQDINKYIAWYQQKPGKAPKLLMAYPFTLQPGVPSRFSGSGSGTDFTLTISSLQPEDFATYYCLQYDNLLWTFGQGTKVEIK
B4 gave a Neutralizing activity IC50 [1] of 5.4 nM, a Kd [2] of 0.14 nM and a koff [2] of 3.3e-05 s⁻¹. For the same binder, the kon [2] was 240000 M⁻¹ s⁻¹.

B5: h53A11-S1 (antibody, V domains shown)
VH: QVQLVQSGAEVKKPGASVKVSCKASGYTFTDYTMHWVRQAPGQRLEWMGGINPYYGGTTYNEKFKDRVTITRDTSASTAYMELSSLRSEDTAVYYCAKGDYYGGSYNYWGQGTTVTVSS
VL: EIVMTQSLATLSVSPGERATLSCRASQDISNSLHWYQQKPGQAPRLLIKYASQSISGIPARFSGSGSGTEFTLTISSLQSEDFAVYYCQQSNSWPYTFGQGTKLEIK
For B5, the Neutralizing activity IC50 [3] was 1.7 nM, the Kd [4] was 2.3 nM and the koff [4] was 0.0003 s⁻¹. The kon [4] was 130000 M⁻¹ s⁻¹.

B6: h53A11-S3 (antibody, V domains shown)
VH: QVQLVQSGAEVKKPGASVKVSCKASGYTFTDYTMHWVRQAPGQRLEWMGGINPYYGGTTYNEKFKDRVTITRDTSASTAYMELSSLRSEDTAVYYCAKGDYYGGSYNYWGQGTTVTVSS
VL: EIVMTQSPATLSVSPGERATLSCRASQDISNSLHWYQQKPGQAPRLLIKYASQSISGIPARFSGSGSGTEFTLTISSLQSEDFAVYYCQQSNSWPYTFGQGTKLEIK
With B6 the Neutralizing activity IC50 [3] was 1.2 nM, the Kd [4] was 5.8 nM and the koff [4] was 0.0007 s⁻¹. The kon [4] was 120000 M⁻¹ s⁻¹.

B7: h53A11-S2 (antibody, V domains shown)
VH: QVQLVQSGAEVKKPGASVKVSCKASGYTFTDYTMHWVRQAPGQRLEWMGGINPYYGGTTYNEKFKDRVTITRDTSASTAYMELSSLRSEDTAVYYCAKGDYYGGSYNYWGQGTTVTVSS
VL: EIVMTQSLATLSVSPGERATLSCRASQDISNSLHWYQQKPGQAPRLLIYYASQSISGIPARFSGSGSGTEFTLTISSLQSEDFAVYYCQQSNSWPYTFGQGTKLEIK
Work on B7 yielded a Neutralizing activity IC50 [3] of 1.8 nM, a Kd [4] of 4.3 nM and a koff [4] of 0.00065 s⁻¹. For the same binder, the kon [4] was 150000 M⁻¹ s⁻¹.

B8: h13B3-S1 (antibody, V domains shown)
VH: QVQLVQSGAEVKKPGASVKVSCKASGYTFTEYTMHWVRQAPGQGLEWMGSINPYYGGTSYNEKFKDRVTMTRDTSTSTVYMELSSLRSEDTAVYYCARYGNYVGYFDYWGQGTTVTVSS
VL: EIVLTQSPGTLSLSPGERATLSCRASSSVHYMYWYQQKPGQAPRLLIYYTSNLAPGIPDRFSGSGSGTDFTLTISRLEPEDFAVYYCQQFTSSPYTFGGGTKVEIK
B8 gave a Neutralizing activity IC50 [3] of 2.4 nM, a Kd [4] of 5.7 nM and a koff [4] of 0.00043 s⁻¹. It also gave a kon [4] of 76000 M⁻¹ s⁻¹.

B9: h13B3-S4 (antibody, V domains shown)
VH: QVQLVQSGAEVKKPGASVKVSCKASGYTFTEYTMHWVRQAPGQGLEWMGSINPYYGGTSYNEKFKDRVTSTRDTSISTAYMELSRLRSDDTVVYYCARYGNYVGYFDYWGQGTTVTVSS
VL: EIVLTQSPATLSLSPGERATLSCRASSSVHYMYWYQQKPGQAPRLLIYYTSNLAPGIPARFSGSGSGTDFTLTISSLEPEDFAVYYCQQFTSSPYTFGGGTKVEIK
B9 gave a Neutralizing activity IC50 [3] of 2.9 nM, a Kd [4] of 3.5 nM and a koff [4] of 0.00038 s⁻¹. For the same binder, the kon [4] was 110000 M⁻¹ s⁻¹.

B10: h13B3-S3 (antibody, V domains shown)
VH: QVQLVQSGAEVKKPGASVKVSCKASGYTFTEYTMHWVRQAPGQGLEWMGSINPYYGGTSYNEKFKDRVTMTRDTSTSTVYMELSSLRSEDTAVYYCARYGNYVGYFDYWGQGTTVTVSS
VL: EIVLTQSPATLSLSPGERATLSCRASSSVHYMYWYQQKPGQAPRLLIYYTSNLAPGIPARFSGSGSGTDFTLTISSLEPEDFAVYYCQQFTSSPYTFGGGTKVEIK
In the case of B10, the Neutralizing activity IC50 [3] is reported as 4.1 nM, the Kd [4] is reported as 13 nM and the koff [4] is reported as 0.00085 s⁻¹. The kon [4] was 66000 M⁻¹ s⁻¹.

B11: h13B3-S2 (antibody, V domains shown)
VH: QVQLVQSGAEVKKPGASVKVSCKASGYTFTEYTMHWVRQAPGQGLEWMGSINPYYGGTSYNEKFKDRVTSTRDTSISTAYMELSRLRSDDTVVYYCARYGNYVGYFDYWGQGTTVTVSS
VL: EIVLTQSPGTLSLSPGERATLSCRASSSVHYMYWYQQKPGQAPRLLIYYTSNLAPGIPDRFSGSGSGTDFTLTISRLEPEDFAVYYCQQFTSSPYTFGGGTKVEIK
B11 showed a Neutralizing activity IC50 [3] of 3.6 nM, a Kd [4] of 3.1 nM and a koff [4] of 0.00014 s⁻¹. The kon [4] was 45000 M⁻¹ s⁻¹.

B12: h23H8-S1 (antibody, V domains shown)
VH: QVQLVQSGAEVKKPGASVKVSCKASGYTFTDNTIHWVRQAPGQGLEWMGHINPYYGGTNNNEKFKDRVTMTRDTSISTAYMELSRLRSDDTAVYYCARKGIYYSSPFDYWGQGTTVTVSS
VL: DIQMTQSPSSLSASVGDRVTITCRASQDINNYLNWYQQKPGKAPKLLIYYTSKLHSGVPSRFSGSGSGTDFTLTISSLQPEDFATYYCQQGNTLPFTFGQGTKLEIK
In the case of B12, the Neutralizing activity IC50 [3] is reported as 26 nM, the Kd [4] is reported as 36 nM and the koff [4] is reported as 0.0036 s⁻¹. It also gave a kon [4] of 100000 M⁻¹ s⁻¹.

B13: h23H8-S2 (antibody, V domains shown)
VH: QVQLVQSGAEVKKPGASVKVSCKASGYTFTDNTIHWVRQAPGQGLEWMGHINPYYGGTNNNEKFKDRVTMTRDTSISTAYMELSRLRSDDTAVYYCARKGIYYSSPFDYWGQGTTVTVSS
VL: DIQMTQSPSSLSASVGDRVTITCRASQDINNYLNWYQQKPGKAPKLLISYTSKLHSGVPSRFSGSGSGTDFTLTISSLQREDFATYYCQQGNTLPFTFGQGTKLEIK
In the case of B13, the Neutralizing activity IC50 [3] is reported as 1.7 nM, the Kd [4] is reported as 4.3 nM and the koff [4] is reported as 0.00099 s⁻¹. For the same binder, the kon [4] was 230000 M⁻¹ s⁻¹.

B14: h23H8-S3 (antibody, V domains shown)
VH: QVQLVQSGAEVKKPGASVKVSCKASGYTFTDNTIHWVRQAPGQGLEWMGHINPYYGGTNNNEKFKDRVTMTRDTSISTAYMELSRLRSDDTAVYYCARKGIYYSSPFDYWGQGTTVTVSS
VL: DIQMTQSPSSLSASVGDRVTITCRASQDINNYLNWYQQKPGKAPKLLISYTSKLHSGVPSRFSGSGSGTDFTLTISSLQPEDFATYYCQQGNTLPFTFGQGTKLEIK
In the case of B14, the Neutralizing activity IC50 [3] is reported as 1.8 nM, the Kd [4] is reported as 0.41 nM and the koff [4] is reported as 0.00015 s⁻¹. For the same binder, the kon [4] was 370000 M⁻¹ s⁻¹.

B15: h16B3-S1 (antibody, V domains shown)
VH: EVQLVESGGGLVQPGGSLRLSCAASGFTFSGYTMSWVRQAPGKGLEWVSEISFARDRAFYPDTVKGRFTISRDNSKNTLYLQMNSLRAEDTAVYYCAKLGGRNHDYWYFDVWGQGTTVTVSS
VL: DIVMTQSPDSLAVSLGERATINCRASESVEYYGTSLMQWYQQKPGQPPKLLIYAASNVESGVPDRFSGSGSGTDFTLTISSLQAEDVAVYYCQQSWKVPFTFGQGTKLEIK
B15 showed a Neutralizing activity IC50 [3] of 3.6 nM, a Kd [4] of 11 nM and a koff [4] of 0.001 s⁻¹. It also gave a kon [4] of 94000 M⁻¹ s⁻¹.
